In the Human Domainome abundance scans (Beltran et al. 2025) one finds abundance fitness data, which are given here for 59 variants.

± gives the uncertainty stated by the source.

The labels stand for the following.
B1: E3 ubiquitin-protein ligase Midline-1, residues 172 to 214; numbered along this chain, O15344 (parent)
chain: GLMCLEHEDEKVNMYCVTDDQLICALCKLVGRHRDHQVAALSE

In this data set the parent is B1. The experiment in a line: abundance fitness (aPCA) (normalised: wild type 0, dead -1); higher = more abundant; growth selection in yeast, the domain comes from the species named. Conditions: Homo sapiens.
Regarding GLMCLEHEDEKVNMYCVTDDQLILALCKLVGRHRDHQVAALSE, the abundance fitness is -0.868 ± 0.093.

In the case of GLMCLEHEDEKVNMYCVTDDQLIAALCKLVGRHRDHQVAALSE, the abundance fitness is -0.799 ± 0.13.

As to GLMCLEHEDEKVNMYCVTDDQLIKALCKLVGRHRDHQVAALSE, the abundance fitness is -0.885 ± 0.25. As to GLMCLEHEDEKVNMYCVTDDQLIEALCKLVGRHRDHQVAALSE, the abundance fitness was -1.05 ± 0.14. Consider GLMCLEHEDEKVNMYNVTDDQLICALCKLVGRHRDHQVAALSE, for which the abundance fitness is -0.183 ± 0.14.

As to GLMCLEHEDEKVNMYRVTDDQLICALCKLVGRHRDHQVAALSE, the abundance fitness was -0.469 ± 0.062. In the case of GLMCLEHEDEKVNMYYVTDDQLICALCKLVGRHRDHQVAALSE it was -0.624 ± 0.28; in that of GLMCLEHEDEKVNMYPVTDDQLICALCKLVGRHRDHQVAALSE, -0.289 ± 0.065; in that of GLMCLEHEDEKVNMYWVTDDQLICALCKLVGRHRDHQVAALSE, -1.19 ± 0.21. For the variant GLMCLEHEDEKVNMYSVTDDQLICALCKLVGRHRDHQVAALSE, the abundance fitness is -0.14 ± 0.11. In the case of GLMCLEHEDEKVNMYCVTDDQLICALCKLVGRHRDHQKAALSE it was -0.209 ± 0.1; in that of GLMCLEHEDEKVNMYCVTDDQLICALCKLVGRHWDHQVAALSE, -0.542 ± 0.087.

Turning to GLMCLEREDEKVNMYCVTDDQLICALCKLVGRHRDHQVAALSE, the abundance fitness is -0.646 ± 0.07. Consider GLMCLETEDEKVNMYCVTDDQLICALCKLVGRHRDHQVAALSE, for which the abundance fitness is -0.492 ± 0.15. GLMCLEHEDEKVNMYCVTDDQLICALCKLVSRHRDHQVAALSE: the abundance fitness was -0.263 ± 0.075. GLMCLEHEDEKVNMYCVTDDQLICALCKLVRRHRDHQVAALSE: the abundance fitness is -0.299 ± 0.057. GLMCLEHEDEKVNMYCVTDDQLICALCKLVYRHRDHQVAALSE: the abundance fitness was -0.19 ± 0.36. In the case of GLMCLEHEDEKVNMYCVTDDQLICALCKLVKRHRDHQVAALSE it was -0.065 ± 0.12; in that of GLMCLEHEDEKWNMYCVTDDQLICALCKLVGRHRDHQVAALSE, -0.251 ± 0.095; in that of GLMCLEHEDEKVNMYCVTDDQWICALCKLVGRHRDHQVAALSE, 0.024 ± 0.079.

Regarding GLMCLEHEDEKVNMYCVTDDQLICALCKLVGRHRDHQVWALSE, the abundance fitness was -0.424 ± 0.086. In the case of GLMCLEHEDEKVNMYCVTDDQLICALCKLVGRHRDHQVNALSE, the abundance fitness came out at 0.401 ± 0.1.

On to GLMCLEHEDEKVNMYCVTDDQLICALCKLVGRHRDHQVQALSE, for which the abundance fitness stood at 0.04 ± 0.067. Consider GLMCLEHEDEKVNMYCVTDDQLICALCKLVGRHRDHAVAALSE, for which the abundance fitness was -0.006 ± 0.062. In the case of GLMCLEHEDEKVNMYCVTDDQLICALCKLVGRHRDHGVAALSE it was -0.146 ± 0.052; in that of GLMCLEHEDEKVNMYCVTDDQLICALCKLVGRHRDHWVAALSE, -0.6 ± 0.073. Next, GLMCLEHEDEKVNMYCVTDDQLICALCKLVGRHRDHRVAALSE: -0.077 ± 0.056. For the variant GLMCLEHEDEKVNMYCVTDDQLICALCKLIGRHRDHQVAALSE, the abundance fitness is -0.131 ± 0.12. On to GLMCLEHEDEKVNMYCVTDDQLICALCKLGGRHRDHQVAALSE, for which the abundance fitness stood at 0.134 ± 0.05. For the variant GLMCLEHEDEKVNMYCVTDDQLICALCKLCGRHRDHQVAALSE, the abundance fitness is -0.115 ± 0.15. On to WLMCLEHEDEKVNMYCVTDDQLICALCKLVGRHRDHQVAALSE, for which the abundance fitness is -0.611 ± 0.2.

In the case of VLMCLEHEDEKVNMYCVTDDQLICALCKLVGRHRDHQVAALSE, the abundance fitness was -0.211 ± 0.072.

As to RLMCLEHEDEKVNMYCVTDDQLICALCKLVGRHRDHQVAALSE, the abundance fitness was -0.081 ± 0.078.

ALMCLEHEDEKVNMYCVTDDQLICALCKLVGRHRDHQVAALSE: the abundance fitness was -0.361 ± 0.087.

In the case of GLMCLEHEDEKVNMYCVTDDQLICALPKLVGRHRDHQVAALSE, the abundance fitness is -0.166 ± 0.17. On to GLMCLEHEDEKVNMYCVTDDQLICALVKLVGRHRDHQVAALSE, for which the abundance fitness is -1 ± 0.099.

Regarding GLMCLEHEDEKVNMYCVTDDQLICALCFLVGRHRDHQVAALSE, the abundance fitness is -0.316 ± 0.22. Regarding GLMCLEHEDEKVNMYCVTDDQLICALCILVGRHRDHQVAALSE, the abundance fitness was 0.061 ± 0.16. On to GLMCLEHEDEKVNMYCVTDDQLICALCQLVGRHRDHQVAALSE, for which the abundance fitness turned out to be 0.288 ± 0.066. On to GLMCLEHEDEKVNMYCVTDDQLICALCDLVGRHRDHQVAALSE, for which the abundance fitness is -0.038 ± 0.35.

In the case of GLMCLEHEDEKVNMYCVTDDQLICALCCLVGRHRDHQVAALSE, the abundance fitness is -0.148 ± 0.074.

As to GLMCLEHEDEKVNMYCVTDDQLICALCELVGRHRDHQVAALSE, the abundance fitness was found to be 0.007 ± 0.062. On to GLMCLEHEDEKVNMYCVTDDQLICALCKLVGRHRDLQVAALSE, for which the abundance fitness was -0.753 ± 0.1. As for GLMCLEHEDEKVNMYCVTDDQLICALCKLVGRHRDDQVAALSE, the abundance fitness is -0.798 ± 0.21.

Regarding GLMCLEHEDEKVNMYCVTDDQLICALCKLVGRHRDWQVAALSE, the abundance fitness is -1.01 ± 0.16. GLMCLEHEDEKVNMYCVTDDQLICALCKLVGRHRDSQVAALSE: the abundance fitness was -0.533 ± 0.08. Next, GLMCLEHEDEKVNMYCVTDDQLICALCKLVGRHRDCQVAALSE: -0.056 ± 0.077. For GLMCLEHEDEKVNMYCVTDDQLICALCKLVGRHRDYQVAALSE, the abundance fitness is -0.381 ± 0.13. With GLMCLEHEDEKVNEYCVTDDQLICALCKLVGRHRDHQVAALSE, the abundance fitness came to 0.176 ± 0.055. In the case of GLMCLEHEDEKVNLYCVTDDQLICALCKLVGRHRDHQVAALSE it was -0.022 ± 0.055. For GLMCLEHEDEKVNMYCVTDDQLICALCKHVGRHRDHQVAALSE, the abundance fitness was 0.19 ± 0.061. As to GLMCLEHEDEKVNMYCVTDDQLICALCKVVGRHRDHQVAALSE, the abundance fitness is 0.008 ± 0.059. As for GLMCLEHEDEKVNMYCVTDDQLICALCKIVGRHRDHQVAALSE, the abundance fitness was -0.205 ± 0.12.

For the variant GLMCLEHEDEKVNMYCVTDDQLICALCKNVGRHRDHQVAALSE, the abundance fitness was found to be 0.072 ± 0.093. Consider GLMCLEHEDEKVNMYCVTMDQLICALCKLVGRHRDHQVAALSE, for which the abundance fitness was -1.1 ± 0.19. As for GLMCLEHEDEKVNMYCVTEDQLICALCKLVGRHRDHQVAALSE, the abundance fitness was -0.012 ± 0.052. As to GLMCLEHEDEKVNMYCVTNDQLICALCKLVGRHRDHQVAALSE, the abundance fitness is -0.095 ± 0.22. As for GLMCLEHEDEKVNMYCVTDDQLICALCKLVGNHRDHQVAALSE, the abundance fitness came to 0.287 ± 0.23.

For the variant GLMCLEHEDEKVNMYCVTDDQLICALCKLVGHHRDHQVAALSE, the abundance fitness is -0.152 ± 0.14.
